The values that follow come from patent CN111690066A.

Test [1] has as its target 自产IL-4Rα重组蛋白 (in-house human recombinant IL-4Rα, residues 26-232 of NP_000409.1, expressed in 293F cells) (human) (UniProt P24394). Put plainly: indirect ELISA.
For test [2], the target named is 近岸购买的IL-4Rα重组蛋白 (IL-4Rα, Novoprotein, Cat#CS33) (human) (UniProt P24394). In words: indirect ELISA. On the technique in general: An ELISA detects its analyte on a solid surface through an enzyme-linked reagent.
In test [3] the target is IL-4Rα on TF-1 cells (human) (UniProt P24394). In words: cell-based or functional assay.

What is called EC50 is the midpoint of the concentration-response curve. For Tab1 (dupilumab) (antibody), the EC50 in test [1] was determined as 0.25 nM. The substance also showed an EC50 in test [2] of 0.25 nM. In test [3], the EC50 of neutralisation of IL-4-induced TF-1 cell proliferation is 0.18 nM and the EC50 of neutralisation of IL-13-induced TF-1 cell proliferation came to 0.073 nM.
